{
  "source": "patent US20110178020A1",
  "about": "(UNIVERSITY OF LOUISVILLE RESEARCH FOUNDATION, published 2011)",
  "binders": {"B1": {"name": "TAT-HA-SNAP-23 fusion polypeptide (TAT cell-penetrating polypeptide, hemagglutinin affinity tag, and 78 amino acids from the amino-terminus of human SNAP-23) (other)", "chain": "MRGSHHHHHHGMASMTGGQQMGRDLYDDDDKDRWGSKLGYGRKKRRQRRRGGSTMSGYPYDVPDYAGSMDNLSSEEIQQRAHQITDESLESTRRILGLAIESQDAGIKTITMLDEQKEQLNRIEEGLDQINKDMRETEKTLTELNK", "notes": "also called TAT-SNAP-23"}},
  "target": "T1, GST-VAMP-2 (VAMP-2 generated as a GST fusion protein, bound to glutathione beads) (UniProt P63027 1-94)",
  "T1 construct": "not shown: glutathione S-transferase (GST) tag",
  "T1 sequence (P63027 1-94)": "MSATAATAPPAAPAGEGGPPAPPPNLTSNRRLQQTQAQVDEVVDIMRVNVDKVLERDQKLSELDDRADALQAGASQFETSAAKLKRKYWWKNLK",
  "assay": "GST pull down, immunoblot for the HA tag",
  "data": [
    {"binder": "B1", "values": [
      {"measurement": "binding result", "result": "no binding"}
    ]}
  ]
}
